Test results reported in patent publication US20180369355A1 (TEXAS A AND M UNIVERSITY SYSTEM, published 2018).
Where no end group is shown, it is not given here.

B1: ClfA221-559 (other)
chain: VAADAPAAGTDITNQLTNVTVGIDSGTTVYPHQAGYVKLNYGFSVPNSAVKGDTFKITVPKELNLNGVTSTAKVPPIMAGDQVLANGVIDSDGNVIYTFTDYVNTKDDVKATLTMPAYIDPENVKKTGNVTLATGIGSTTANKTVLVDYEKYGKFYNLSIKGTIDQIDKTNNTYRQTIYVNPSGDNVIAPVLTGNLKPNTDSNALIDQQNTSIKVYKVDNAADLSESYFVNPENFEDVTNSVNITFPNPNQYKVEFNTPDDQITTPYIVVVNGHIDPNSKGDLALRSTLYGYNSNIIWRSMSWDNEVAFNNGSGSGDGIDKPVVPEQPDEPGEIEPIPE
notes: Recombinant, expressed in E. coli and purified by nickel chelate chromatography; the tag is not described; also called ClfA N2N3; ClfAN2N3

Columns and labels:
[1] = target: ClfA221-559 (S. aureus strain Newman) (UniProt Q53653); experiment: SPR competition; 2 µM Tefibazumab with 1 µM ClfA221-559 over immobilized Fg (competitor: Fg)
[2] = target: ClfA221-559 (S. aureus strain Newman) (UniProt Q53653); experiment: SPR competition; Tefibazumab 0.1-2 µM with 1 µM ClfA221-559 over immobilized human Fg (competitor: Fg)
[3] = target: ClfA221-559 (S. aureus strain Newman) (UniProt Q53653); experiment: SPR competition: Tefibazumab mixed with 1 µM ClfA221-559, blocked ligand immobilized fibrinogen (Fg)
[4] = target: ClfA221-559 (S. aureus strain Newman) (UniProt Q53653); experiment: SPR competition; 2 µM Tefibazumab with 1 µM ClfA221-559 over immobilized D-fragment (competitor: D-fragment)
[5] = target: ClfA221-559 (S. aureus strain Newman) (UniProt Q53653); experiment: SPR competition: Tefibazumab mixed with 1 µM ClfA221-559, blocked ligand immobilized Fg D-fragment (Fg-D)
[6] = target: ClfA221-559 (S. aureus strain Newman) (UniProt Q53653); experiment: SPR competition; Tefibazumab 0.1-2 µM with 1 µM ClfA221-559 over immobilized Fg D-fragment (competitor: D-fragment)
[7] = target: ClfA221-559 (S. aureus strain Newman) (UniProt Q53653); experiment: SPR competition; 2 µM Tefibazumab with 1 µM ClfA221-559 over captured GST-tagged Fg γ-peptide (competitor: GST-γ-peptide)
[8] = target: ClfA221-559 (S. aureus strain Newman) (UniProt Q53653); experiment: SPR competition: Tefibazumab (0.1 to 2 µM) mixed with 1 µM ClfA221-559, binding of ClfA221-559 to immobilized fibrinogen (Fg) is blocked
[9] = target: ClfA221-559 (S. aureus strain Newman) (UniProt Q53653); experiment: SPR competition: Tefibazumab (0.1 to 2 µM) mixed with 1 µM ClfA221-559, binding of ClfA221-559 to immobilized Fg D-fragment (Fg-D) is blocked
[10] = target: T1, human fibrinogen (human, UniProt P02671 20-629; P02675 31-491; P02679 27-437); experiment: SPR; immobilized Fg against GST-γ-peptide
T1 construct: also called Fg; intact Fg
T1 sequence 1: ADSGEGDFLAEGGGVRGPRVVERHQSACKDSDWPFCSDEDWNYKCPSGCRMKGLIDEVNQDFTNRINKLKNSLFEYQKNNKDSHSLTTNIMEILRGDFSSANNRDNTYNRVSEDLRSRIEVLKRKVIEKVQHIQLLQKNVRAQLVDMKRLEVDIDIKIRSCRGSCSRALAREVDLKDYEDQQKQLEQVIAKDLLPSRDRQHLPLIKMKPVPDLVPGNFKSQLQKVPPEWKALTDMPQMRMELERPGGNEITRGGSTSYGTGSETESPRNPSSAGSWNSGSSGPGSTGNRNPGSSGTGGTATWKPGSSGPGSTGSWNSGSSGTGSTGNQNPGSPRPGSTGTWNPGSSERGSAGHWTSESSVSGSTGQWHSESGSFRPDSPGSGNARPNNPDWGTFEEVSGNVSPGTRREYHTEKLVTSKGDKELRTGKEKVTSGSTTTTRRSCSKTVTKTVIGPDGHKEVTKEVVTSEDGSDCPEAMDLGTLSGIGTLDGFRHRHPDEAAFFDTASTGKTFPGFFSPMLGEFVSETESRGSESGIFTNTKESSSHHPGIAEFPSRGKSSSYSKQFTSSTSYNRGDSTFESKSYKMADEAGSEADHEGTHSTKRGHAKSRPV
T1 sequence 2: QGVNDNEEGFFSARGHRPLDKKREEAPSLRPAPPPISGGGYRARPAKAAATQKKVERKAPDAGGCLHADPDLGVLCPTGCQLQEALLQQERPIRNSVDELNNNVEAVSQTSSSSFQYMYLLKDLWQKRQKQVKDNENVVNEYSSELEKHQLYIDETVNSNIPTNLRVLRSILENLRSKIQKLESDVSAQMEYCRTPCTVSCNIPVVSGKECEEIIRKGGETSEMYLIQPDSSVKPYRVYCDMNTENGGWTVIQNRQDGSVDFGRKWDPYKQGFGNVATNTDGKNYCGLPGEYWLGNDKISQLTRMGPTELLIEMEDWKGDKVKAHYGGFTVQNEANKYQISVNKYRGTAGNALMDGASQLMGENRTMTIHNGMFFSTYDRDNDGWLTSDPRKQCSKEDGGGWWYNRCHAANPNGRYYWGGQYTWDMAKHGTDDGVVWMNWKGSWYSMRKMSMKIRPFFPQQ
T1 sequence 3: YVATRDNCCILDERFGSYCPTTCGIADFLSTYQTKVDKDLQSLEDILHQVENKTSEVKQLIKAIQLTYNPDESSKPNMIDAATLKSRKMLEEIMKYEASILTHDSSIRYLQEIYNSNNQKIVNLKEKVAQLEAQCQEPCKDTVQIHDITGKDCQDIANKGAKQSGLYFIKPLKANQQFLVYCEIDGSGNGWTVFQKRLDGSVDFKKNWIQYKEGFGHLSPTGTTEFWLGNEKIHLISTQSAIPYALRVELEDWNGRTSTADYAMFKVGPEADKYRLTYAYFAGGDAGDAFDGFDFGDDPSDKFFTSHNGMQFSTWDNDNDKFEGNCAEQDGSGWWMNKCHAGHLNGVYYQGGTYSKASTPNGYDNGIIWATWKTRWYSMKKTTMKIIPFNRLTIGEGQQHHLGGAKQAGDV

[11] = target: T2, Fg D-fragment (UniProt P02671 130-216; P02675 164-491; P02679 114-437); experiment: SPR; immobilized Fg D-fragment against GST-γ-peptide
T2 construct: domain: D-fragment; also called D-domain
T2 sequence 1: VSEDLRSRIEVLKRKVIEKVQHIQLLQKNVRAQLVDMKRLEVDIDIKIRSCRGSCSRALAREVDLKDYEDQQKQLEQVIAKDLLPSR
T2 sequence 2: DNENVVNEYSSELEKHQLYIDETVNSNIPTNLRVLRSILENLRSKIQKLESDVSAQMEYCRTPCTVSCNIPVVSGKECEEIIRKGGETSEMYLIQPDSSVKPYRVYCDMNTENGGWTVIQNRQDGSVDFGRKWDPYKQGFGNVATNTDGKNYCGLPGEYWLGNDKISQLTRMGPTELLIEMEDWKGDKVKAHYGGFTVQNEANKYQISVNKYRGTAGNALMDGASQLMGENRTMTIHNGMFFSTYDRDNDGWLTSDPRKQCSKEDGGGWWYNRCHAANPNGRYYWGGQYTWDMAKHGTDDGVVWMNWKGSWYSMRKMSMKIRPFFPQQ
T2 sequence 3: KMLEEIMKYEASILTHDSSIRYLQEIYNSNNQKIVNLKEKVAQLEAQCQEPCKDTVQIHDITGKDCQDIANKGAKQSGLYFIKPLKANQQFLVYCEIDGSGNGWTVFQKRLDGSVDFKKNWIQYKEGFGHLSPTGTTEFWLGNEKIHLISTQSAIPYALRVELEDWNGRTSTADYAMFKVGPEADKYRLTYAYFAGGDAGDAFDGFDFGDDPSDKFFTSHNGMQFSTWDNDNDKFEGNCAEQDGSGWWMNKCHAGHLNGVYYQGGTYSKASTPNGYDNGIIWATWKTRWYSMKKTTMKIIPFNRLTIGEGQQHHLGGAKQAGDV

[12] = target: T1, human fibrinogen; experiment: SPR; ClfA221-559 over immobilized intact Fg; immobilized intact Fg
[13] = target: T2, Fg D-fragment; experiment: SPR; ClfA221-559 over immobilized Fg D-fragment; immobilized Fg D-fragment
[14] = target: B1; experiment: SPR (Biacore), drawn table Ligand/analyte: GST-γ-peptide on the surface, ClfA221-559 as analyte
[15] = target: T3, ClfA370-559 (S. aureus, UniProt Q53653 370-559); experiment: SPR (Biacore), drawn table Ligand/analyte: GST-γ-peptide on the surface, ClfA N3 domain (ClfA370-559) as analyte
T3 construct: also called recombinant form of N3
T3 sequence: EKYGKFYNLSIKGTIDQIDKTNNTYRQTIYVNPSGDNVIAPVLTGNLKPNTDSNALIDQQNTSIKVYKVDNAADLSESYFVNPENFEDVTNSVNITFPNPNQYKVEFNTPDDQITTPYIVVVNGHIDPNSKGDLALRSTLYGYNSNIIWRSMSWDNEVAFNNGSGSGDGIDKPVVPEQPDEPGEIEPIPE

[16] = target: T1, human fibrinogen; experiment: ITC; full-length Fg against the synthetic C-terminal γ-chain peptide
[17] = target: T1, human fibrinogen; experiment: ITC, ClfACC titrated into fibrinogen in the cell; OneSites fit box
[18] = target: T1, human fibrinogen; experiment: ITC, ClfACC titrated into fibrinogen in the cell; OneSites fit box, unit not given
[19] = target: T1, human fibrinogen; experiment: ITC; full-length Fg in the cell, ClfACC titrated in, 30 °C; full-length Fg in the cell, ClfACC titrated in

## Tefibazumab (antibody)
[1]
  percent inhibition: 60%
[2]
  IC50: 30 nM
[3]
  IC50 (read off the curve): 300 nM
[4]
  percent inhibition: 70%
[5]
  IC50 (read off the curve): 300 nM
[6]
  IC50: 30 nM
[7]
  percent inhibition: 25%
[8]
  IC50: 30.2 nM
[9]
  IC50: 29.6 nM

## B1
[10]
  fold difference in KD against the γ-peptide: 4 to 7 fold
[11]
  fold difference in KD against the γ-peptide: 4 to 7 fold
[12]
  Kd: 980 nM
[13]
  Kd: 680 nM

B2: GST-tagged Fg γ-peptide (other)
chain: {GST}-GEGQQHHLGGAKQAGDV
notes: domain: γ-peptide (carboxy terminal of the γ-chain); 'expressed and purified as described earlier'; also called GST-γ-peptide; GST tagged γ-peptide; not shown: GST tag
[14]
  Kd: 4300 nM
[15]
  Kd: 54000 nM

B3: ClfACC (other)
chain: GTDITNQLTNVTVGIDSGTTVYPHQAGYVKLNYGFSVPNSAVKGDTFKITVPKELNLNGVTSTAKVPPIMAGDQVLANGVIDSDGNVIYTFTDYVNTKCDVKATLTMPAYIDPENVKKTGNVTLATGIGSTTANKTVLVDYEKYGKFYNLSIKGTIDQIDKTNNTYRQTIYVNPSGDNVIAPVLTGNLKPNTDSNALIDQQNTSIKVYKVDNAADLSESYFVNPENFEDVTNSVNITFPNPNQYKVEFNTPDDQITTPYIVVVNGHIDPNSKGDLALRSTLYGYNSNIIWRSMSWDNEVAFNNGSGSGDGIDCPVVP
modifications: engineered disulfide bond between C327 and C541
notes: also called disulfide bond-closed ClfACC; closed form of ClfA N2N3
[16]
  fold higher affinity against the γ-chain peptide: 30 fold
[17]
  N: 1.57
[18]
  ΔH: -13300
[19]
  Kd: 300 nM
